In the supplement of paper PMC10567573 one finds protein stability index data, which are given here for 94 variants.

B1: ZNF24 (parent)
chain: THTKEQILELVVLEQFVAILPKEL
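Note: lentivirally expressed fusions sorted by FACS into six bins by GFP to DsRed ratio, PSI derived from sequencing read proportions per bin multiplied by bin number.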

The variants in this data set derive from B1. Description: protein stability index of a GFP-peptide fusion (GPS, HEK-293T) (PSI 1-6); higher = more stable. The following applies: c terminus: a fixed tail appended.
Take THTKEQILELVVLEQEVAILPKEL [F16E]: the protein stability index was found to be 2.03.

Regarding THTKEQILELVVLEQPVAILPKEL [F16P], the protein stability index was determined as 1.94.

As to THTKEQILELVVLEQAVAILPKEL [F16A], the protein stability index was 1.91.

Regarding THTKEQILELVVLEQTVAILPKEL [F16T], the protein stability index is 1.82.

Consider THTKEQILELVVLEQDVAILPKEL [F16D], for which the protein stability index was determined as 2.33.

Take THTKEQILELVVLEQKVAILPKEL [F16K]: the protein stability index was determined as 1.95.

Take THTKEQILELVVLEQNVAILPKEL [F16N]: the protein stability index is 2.21.

As for THTKEQILELVVLEQVVAILPKEL [F16V], the protein stability index is 2.02.

For THTKEQILELVVLEQSVAILPKEL [F16S], the protein stability index is 2.27.

As to THTKEQILELVVLEQIVAILPKEL [F16I], the protein stability index came out at 1.43.

With THTKEQILELVVLEQQVAILPKEL [F16Q], the protein stability index was 2.01.

Consider THTKEQILELVVLEQWVAILPKEL [F16W], for which the protein stability index came to 2.54.

For the variant THTKEQILELVVLEQRVAILPKEL [F16R], the protein stability index amounted to 1.99.

Turning to THTKEQILELVVLEQHVAILPKEL [F16H], the protein stability index was 2.13.

For the variant THTKEQILELVVLEQYVAILPKEL [F16Y], the protein stability index turned out to be 1.76.

Regarding THTKEQILELVVLEQMVAILPKEL [F16M], the protein stability index was found to be 2.5.

For THTKEQILELVVLEQLVAILPKEL [F16L], the protein stability index is 3.14.

For THTKEQILELVVLEQGVAILPKEL [F16G], the protein stability index worked out at 1.69.

As for THTKEQILELVVLEQCVAILPKEL [F16C], the protein stability index was 1.77.

As to THTKEQILELVVLEAFVAILPKEL [Q15A], the protein stability index is 2.

With THTKEQILELVVLEIFVAILPKEL [Q15I], the protein stability index is 2.87.

Turning to THTKEQILELVVLESFVAILPKEL [Q15S], the protein stability index worked out at 2.93.

For the variant THTKEQILELVVLEKFVAILPKEL [Q15K], the protein stability index worked out at 1.75.

As to THTKEQILELVVLEYFVAILPKEL [Q15Y], the protein stability index is 2.18.

As for THTKEQILELVVLEVFVAILPKEL [Q15V], the protein stability index came to 3.51.

With THTKEQILELVVLENFVAILPKEL [Q15N], the protein stability index was 2.81.

With THTKEQILELVVLEEFVAILPKEL [Q15E], the protein stability index stood at 2.55.

For THTKEQILELVVLECFVAILPKEL [Q15C], the protein stability index was 1.66.

With THTKEQILELVVLEDFVAILPKEL [Q15D], the protein stability index worked out at 1.91.

Regarding THTKEQILELVVLEPFVAILPKEL [Q15P], the protein stability index came to 2.4.

As for THTKEQILELVVLEGFVAILPKEL [Q15G], the protein stability index came out at 2.95.

With THTKEQILELVVLEFFVAILPKEL [Q15F], the protein stability index was 2.79.

Turning to THTKEQILELVVLELFVAILPKEL [Q15L], the protein stability index came out at 2.44.

Regarding THTKEQILELVVLETFVAILPKEL [Q15T], the protein stability index worked out at 3.75.

In the case of THTKEQILELVVLEMFVAILPKEL [Q15M], the protein stability index was 2.63.

As to THTKEQILELVVLEHFVAILPKEL [Q15H], the protein stability index came out at 2.53.

Take THTKEQILELVVLERFVAILPKEL [Q15R]: the protein stability index is 2.81.

THTKEQILELVVLEWFVAILPKEL [Q15W]: the protein stability index was found to be 2.82.

For THTKEQILELVVLQQFVAILPKEL [E14Q], the protein stability index came to 2.97.

On to THTKEQILELVVLSQFVAILPKEL [E14S], for which the protein stability index worked out at 2.53.

Turning to THTKEQILELVVLLQFVAILPKEL [E14L], the protein stability index turned out to be 2.05.

For THTKEQILELVVLKQFVAILPKEL [E14K], the protein stability index was determined as 2.61.

In the case of THTKEQILELVVLRQFVAILPKEL [E14R], the protein stability index was 2.95.

Consider THTKEQILELVVLIQFVAILPKEL [E14I], for which the protein stability index worked out at 3.12.

Turning to THTKEQILELVVLYQFVAILPKEL [E14Y], the protein stability index worked out at 3.47.

As for THTKEQILELVVLVQFVAILPKEL [E14V], the protein stability index was found to be 1.16.

For the variant THTKEQILELVVLWQFVAILPKEL [E14W], the protein stability index came to 3.05.

With THTKEQILELVVLNQFVAILPKEL [E14N], the protein stability index came to 3.68.

Consider THTKEQILELVVLTQFVAILPKEL [E14T], for which the protein stability index is 2.64.

In the case of THTKEQILELVVLPQFVAILPKEL [E14P], the protein stability index is 2.12.

THTKEQILELVVLMQFVAILPKEL [E14M]: the protein stability index is 2.67.

Turning to THTKEQILELVVLEQFVSILPKEL [A18S], the protein stability index was determined as 1.95.

In the case of THTKEQILELVVLEQFVGILPKEL [A18G], the protein stability index is 2.88.

With THTKEQILELVVLEQFVPILPKEL [A18P], the protein stability index is 2.48.

For the variant THTKEQILELVVLEQFVEILPKEL [A18E], the protein stability index amounted to 2.1.

Consider THTKEQILELVVLEQFVWILPKEL [A18W], for which the protein stability index was found to be 2.51.

For the variant THTKEQILELVVLEQFVCILPKEL [A18C], the protein stability index turned out to be 3.45.

On to THTKEQILELVVLEQFVQILPKEL [A18Q], for which the protein stability index came to 2.48.

For the variant THTKEQILELVVLEQFVTILPKEL [A18T], the protein stability index is 2.2.

With THTKEQILELVVLEQFVFILPKEL [A18F], the protein stability index came to 1.44.

Regarding THTKEQILELVVLEQFVKILPKEL [A18K], the protein stability index stood at 2.49.

Take THTKEQILELVVLEQFVMILPKEL [A18M]: the protein stability index was found to be 1.65.

As for THTKEQILELVVLEQFVDILPKEL [A18D], the protein stability index was 2.32.

As to THTKEQILELVVLEQFVVILPKEL [A18V], the protein stability index was 2.58.

As for THTKEQILELVVLEQFVLILPKEL [A18L], the protein stability index stood at 2.04.

On to THTKEQILELVVLEQFVHILPKEL [A18H], for which the protein stability index was found to be 3.02.

For the variant THTKEQILELVVLEQFVYILPKEL [A18Y], the protein stability index is 2.59.

On to THTKEQILELVVLEQFVNILPKEL [A18N], for which the protein stability index amounted to 2.67.

As for THTKEQILELVVLEQFVRILPKEL [A18R], the protein stability index was determined as 2.05.

Regarding THTKEQILELVVLEQFVAGLPKEL [I19G], the protein stability index was 1.52.

Consider THTKEQILELVVLEQFVACLPKEL [I19C], for which the protein stability index turned out to be 2.61.

For THTKEQILELVVLEQFVAALPKEL [I19A], the protein stability index was 1.98.

Regarding THTKEQILELVVLEQFVAELPKEL [I19E], the protein stability index stood at 2.37.

In the case of THTKEQILELVVLEQFVAFLPKEL [I19F], the protein stability index came out at 2.22.

In the case of THTKEQILELVVLEQFVADLPKEL [I19D], the protein stability index came to 1.77.

Turning to THTKEQILELVVLEQFFAILPKEL [V17F], the protein stability index was 2.47.

As for THTKEQILELVVLEQFRAILPKEL [V17R], the protein stability index was 1.66.

THTKEQILELVVLEQFQAILPKEL [V17Q]: the protein stability index is 2.02.

With THTKEQILELVVLEQFNAILPKEL [V17N], the protein stability index came out at 1.72.

Take THTKEQILELVVLEQFCAILPKEL [V17C]: the protein stability index came to 2.49.

For the variant THTKEQILELVVLEQFIAILPKEL [V17I], the protein stability index amounted to 2.94.

With THTKEQILELVVLEQFTAILPKEL [V17T], the protein stability index came to 1.97.

Take THTKEQILELVVLEQFKAILPKEL [V17K]: the protein stability index worked out at 1.54.

THTKEQILELVVLEQFSAILPKEL [V17S]: the protein stability index turned out to be 2.95.

With THTKEQILELVVLEQFLAILPKEL [V17L], the protein stability index was 2.47.

Regarding THTKEQILELVVLEQFHAILPKEL [V17H], the protein stability index stood at 2.25.

As for THTKEQILELVVLEQFPAILPKEL [V17P], the protein stability index amounted to 1.94.

Turning to THTKEQILELVVLEQFYAILPKEL [V17Y], the protein stability index stood at 2.53.

For the variant THTKEQILELVVLEQFMAILPKEL [V17M], the protein stability index was 2.31.

On to THTKEQILELVVLEQFEAILPKEL [V17E], for which the protein stability index is 1.91.

On to THTKEQILELVVLEQFDAILPKEL [V17D], for which the protein stability index turned out to be 1.71.

THTKEQILELVVLEQFGAILPKEL [V17G]: the protein stability index was determined as 1.52.

Turning to THTKEQILELVVLEQFWAILPKEL [V17W], the protein stability index came out at 2.19.

Regarding THTKEQILELVVLEQFAAILPKEL [V17A], the protein stability index is 3.14.
